Reference: the RNAGym collection of RNA variant scans (doi:10.7554/elife.80360)

B1: HDV Ribozyme (parent)
chain: GGCCGGCAUGGUCCCAGCCUCCUCGCUGGCGCCGGCUGGGCAACAUUCCGAGGGGACCGUCCCCUCGGUAAUGGCGAAUGGGACCCA

Variants of: B1
Assay: self-cleavage, relative activity (ratio to wild type); higher = more cleavage; co-transcriptional

Compared with GGCCGGCAUGGUCCCAGCCUCCUCGCUGGCGCCGGCUGGGCAACAUUCCGAGGGGACCGUCCCCUCGGUAAUGGCGAAUGAGACGCA, GGCCGGCAUGGUCCCAGCCUCCUCGCUGGCGCCGGCUGGGCAACAUUCCGAGGGGACCGUCCCCUCGGUAAUGGCGAAUGAAACCCA is higher in self-cleavage: 0.175 for the first, 0.201 for the second.

First: GGCCGGCAUGGUCCCAGCCUCCUCGCUGGCGCCGGCUGGGCAACAUUCCGAGGGGACCGUCCCCUCGGUAAUGGCGAAUGAUACCCA
Second: GGCCGGCAUGGUCCCAGCCUCCUCGCUGGCGCCGGCUGGGCAACAUUCCGAGGGGACCGUCCCCUCGGUAAUGGCGAAUGACACCCA
The self-cleavage of the first is higher: 0.225 for the first, 0.163 for the second.

Going from GGCCGGCAUGGUCCCAGCCUCCUCGCUGGCGCCGGCUGGGCAACAUUCCGAGGGGACCGUCCCCUCGGUAAUGGCGAAUCGUACCCA to GGCCGGCAUGGUCCCAGCCUCCUCGCUGGCGCCGGCUGGGCAACAUUCCGAGGGGACCGUCCCCUCGGUAAUGGCGAAUGCUACCCA, the self-cleavage rises from 0.0782 to 0.287.

Compared with GGCCGGCAUGGUCCCAGCCUCCUCGCUGGCGCCGGCUGGGCAACAUUCCGAGGGGACCGUCCCCUCGGUAAUGGCGAAUGAGACCGA, GGCCGGCAUGGUCCCAGCCUCCUCGCUGGCGCCGGCUGGGCAACAUUCCGAGGGGACCGUCCCCUCGGUAAUGGCGAAUGAGACCUA is higher in self-cleavage: 0.45 for the first, 0.546 for the second.

First: GGCCGGCAUGGUCCCAGCCUCCUCGCUGGCGCCGGCUGGGCAACAUUCCGAGGGGACCGUCCCCUCGGUAAUGGCGAAUGGAAACCA
Second: GGCCGGCAUGGUCCCAGCCUCCUCGCUGGCGCCGGCUGGGCAACAUUCCGAGGGGACCGUCCCCUCGGUAAUGGCGAAUGUGACCCC
The self-cleavage of the first is lower: 0.399 for the first, 0.444 for the second.

Compared with GGCCGGCAUGGUCCCAGCCUCCUCGCUGGCGCCGGCUGGGCAACAUUCCGAGGGGACCGUCCCCUCGGUAAUGGCGAAUGUGACCCG, GGCCGGCAUGGUCCCAGCCUCCUCGCUGGCGCCGGCUGGGCAACAUUCCGAGGGGACCGUCCCCUCGGUAAUGGCGAAUGUGAUCCA is lower in self-cleavage: 0.291 for the first, 0.228 for the second.

Compared with GGCCGGCAUGGUCCCAGCCUCCUCGCUGGCGCCGGCUGGGCAACAUUCCGAGGGGACCGUCCCCUCGGUAAUGGCGAAUGUGAGCCA, GGCCGGCAUGGUCCCAGCCUCCUCGCUGGCGCCGGCUGGGCAACAUUCCGAGGGGACCGUCCCCUCGGUAAUGGCGAAUGGUACCCG is higher in self-cleavage: 0.0923 for the first, 0.387 for the second.

Going from GGCCGGCAUGGUCCCAGCCUCCUCGCUGGCGCCGGCUGGGCAACAUUCCGAGGGGACCGUCCCCUCGGUAAUGGCGAAUGUGCCCCA to GGCCGGCAUGGUCCCAGCCUCCUCGCUGGCGCCGGCUGGGCAACAUUCCGAGGGGACCGUCCCCUCGGUAAUGGCGAAUUGGUCCCA, the self-cleavage rises from 0.0821 to 0.181.

First: GGCCGGCAUGGUCCCAGCCUCCUCGCUGGCGCCGGCUGGGCAACAUUCCGAGGGGACCGUCCCCUCGGUAAUGGCGAAUUCGACCCA
Second: GGCCGGCAUGGUCCCAGCCUCCUCGCUGGCGCCGGCUGGGCAACAUUCCGAGGGGACCGUCCCCUCGGUAAUGGCGAAUUGGACUCA
The self-cleavage of the first is lower: 0.199 for the first, 0.227 for the second.

Compared with GGCCGGCAUGGUCCCAGCCUCCUCGCUGGCGCCGGCUGGGCAACAUUCCGAGGGGACCGUCCCCUCGGUAAUGGCGAAUGGCACCGA, GGCCGGCAUGGUCCCAGCCUCCUCGCUGGCGCCGGCUGGGCAACAUUCCGAGGGGACCGUCCCCUCGGUAAUGGCGAAUGCGACCUA is higher in self-cleavage: 0.194 for the first, 0.302 for the second.

First: GGCCGGCAUGGUCCCAGCCUCCUCGCUGGCGCCGGCUGGGCAACAUUCCGAGGGGACCGUCCCCUCGGUAAUGGCGAAUGCGACCAA
Second: GGCCGGCAUGGUCCCAGCCUCCUCGCUGGCGCCGGCUGGGCAACAUUCCGAGGGGACCGUCCCCUCGGUAAUGGCGAAUUGGACCAA
The self-cleavage of the first is higher: 0.554 for the first, 0.239 for the second.

Going from GGCCGGCAUGGUCCCAGCCUCCUCGCUGGCGCCGGCUGGGCAACAUUCCGAGGGGACCGUCCCCUCGGUAAUGGCGAAUUGGACCUA to GGCCGGCAUGGUCCCAGCCUCCUCGCUGGCGCCGGCUGGGCAACAUUCCGAGGGGACCGUCCCCUCGGUAAUGGCGAAUGGCACGCA, the self-cleavage falls from 0.281 to 0.119.

Compared with GGCCGGCAUGGUCCCAGCCUCCUCGCUGGCGCCGGCUGGGCAACAUUCCGAGGGGACCGUCCCCUCGGUAAUGGCGAAUGGCACACA, GGCCGGCAUGGUCCCAGCCUCCUCGCUGGCGCCGGCUGGGCAACAUUCCGAGGGGACCGUCCCCUCGGUAAUGGCGAAUGGCACUCA is higher in self-cleavage: 0.147 for the first, 0.18 for the second.

Going from GGCCGGCAUGGUCCCAGCCUCCUCGCUGGCGCCGGCUGGGCAACAUUCCGAGGGGACCGUCCCCUCGGUAAUGGCGAAUGUGACGCA to GGCCGGCAUGGUCCCAGCCUCCUCGCUGGCGCCGGCUGGGCAACAUUCCGAGGGGACCGUCCCCUCGGUAAUGGCGAAUGUGACUCA, the self-cleavage rises from 0.212 to 0.31.

First: GGCCGGCAUGGUCCCAGCCUCCUCGCUGGCGCCGGCUGGGCAACAUUCCGAGGGGACCGUCCCCUCGGUAAUGGCGAAUGUGACACA
Second: GGCCGGCAUGGUCCCAGCCUCCUCGCUGGCGCCGGCUGGGCAACAUUCCGAGGGGACCGUCCCCUCGGUAAUGGCGAAUGGUACUCA
The self-cleavage of the first is lower: 0.389 for the first, 0.451 for the second.

First: GGCCGGCAUGGUCCCAGCCUCCUCGCUGGCGCCGGCUGGGCAACAUUCCGAGGGGACCGUCCCCUCGGUAAUGGCGAAUGGUACGCA
Second: GGCCGGCAUGGUCCCAGCCUCCUCGCUGGCGCCGGCUGGGCAACAUUCCGAGGGGACCGUCCCCUCGGUAAUGGCGAAUGGUACACA
The self-cleavage of the first is higher: 0.446 for the first, 0.256 for the second.

Going from GGCCGGCAUGGUCCCAGCCUCCUCGCUGGCGCCGGCUGGGCAACAUUCCGAGGGGACCGUCCCCUCGGUAAUGGCGAAUGCGAGCCA to GGCCGGCAUGGUCCCAGCCUCCUCGCUGGCGCCGGCUGGGCAACAUUCCGAGGGGACCGUCCCCUCGGUAAUGGCGAAUGCGAUCCA, the self-cleavage falls from 0.256 to 0.141.

First: GGCCGGCAUGGUCCCAGCCUCCUCGCUGGCGCCGGCUGGGCAACAUUCCGAGGGGACCGUCCCCUCGGUAAUGGCGAAUGUUACCCA
Second: GGCCGGCAUGGUCCCAGCCUCCUCGCUGGCGCCGGCUGGGCAACAUUCCGAGGGGACCGUCCCCUCGGUAAUGGCGAAUGUAACCCA
The self-cleavage of the first is lower: 0.211 for the first, 0.277 for the second.

Compared with GGCCGGCAUGGUCCCAGCCUCCUCGCUGGCGCCGGCUGGGCAACAUUCCGAGGGGACCGUCCCCUCGGUAAUGGCGAAUGUGACCGA, GGCCGGCAUGGUCCCAGCCUCCUCGCUGGCGCCGGCUGGGCAACAUUCCGAGGGGACCGUCCCCUCGGUAAUGGCGAAUGUGACCUA is higher in self-cleavage: 0.27 for the first, 0.767 for the second.

First: GGCCGGCAUGGUCCCAGCCUCCUCGCUGGCGCCGGCUGGGCAACAUUCCGAGGGGACCGUCCCCUCGGUAAUGGCGAAUGAGAACCA
Second: GGCCGGCAUGGUCCCAGCCUCCUCGCUGGCGCCGGCUGGGCAACAUUCCGAGGGGACCGUCCCCUCGGUAAUGGCGAAUGCGACCCG
The self-cleavage of the first is higher: 0.339 for the first, 0.306 for the second.

First: GGCCGGCAUGGUCCCAGCCUCCUCGCUGGCGCCGGCUGGGCAACAUUCCGAGGGGACCGUCCCCUCGGUAAUGGCGAAUGCGACCCC
Second: GGCCGGCAUGGUCCCAGCCUCCUCGCUGGCGCCGGCUGGGCAACAUUCCGAGGGGACCGUCCCCUCGGUAAUGGCGAAUGCGACCCU
The self-cleavage of the first is higher: 0.269 for the first, 0.265 for the second.

First: GGCCGGCAUGGUCCCAGCCUCCUCGCUGGCGCCGGCUGGGCAACAUUCCGAGGGGACCGUCCCCUCGGUAAUGGCGAAUGGUCCCCA
Second: GGCCGGCAUGGUCCCAGCCUCCUCGCUGGCGCCGGCUGGGCAACAUUCCGAGGGGACCGUCCCCUCGGUAAUGGCGAAUGAGGCCCA
The self-cleavage of the first is lower: 0.18 for the first, 0.236 for the second.

Compared with GGCCGGCAUGGUCCCAGCCUCCUCGCUGGCGCCGGCUGGGCAACAUUCCGAGGGGACCGUCCCCUCGGUAAUGGCGAAUUGGACCCA, GGCCGGCAUGGUCCCAGCCUCCUCGCUGGCGCCGGCUGGGCAACAUUCCGAGGGGACCGUCCCCUCGGUAAUGGCGAAUGAGACCCC is higher in self-cleavage: 0.223 for the first, 0.455 for the second.

First: GGCCGGCAUGGUCCCAGCCUCCUCGCUGGCGCCGGCUGGGCAACAUUCCGAGGGGACCGUCCCCUCGGUAAUGGCGAAUGGCUCCCA
Second: GGCCGGCAUGGUCCCAGCCUCCUCGCUGGCGCCGGCUGGGCAACAUUCCGAGGGGACCGUCCCCUCGGUAAUGGCGAAUGGCCCCCA
The self-cleavage of the first is lower: 0.237 for the first, 0.284 for the second.

Compared with GGCCGGCAUGGUCCCAGCCUCCUCGCUGGCGCCGGCUGGGCAACAUUCCGAGGGGACCGUCCCCUCGGUAAUGGCGAAUGGAACCUA, GGCCGGCAUGGUCCCAGCCUCCUCGCUGGCGCCGGCUGGGCAACAUUCCGAGGGGACCGUCCCCUCGGUAAUGGCGAAUGGAACCAA is higher in self-cleavage: 0.522 for the first, 0.729 for the second.

Compared with GGCCGGCAUGGUCCCAGCCUCCUCGCUGGCGCCGGCUGGGCAACAUUCCGAGGGGACCGUCCCCUCGGUAAUGGCGAAUGGUAACCA, GGCCGGCAUGGUCCCAGCCUCCUCGCUGGCGCCGGCUGGGCAACAUUCCGAGGGGACCGUCCCCUCGGUAAUGGCGAAUGGUAUCCA is lower in self-cleavage: 0.261 for the first, 0.133 for the second.

First: GGCCGGCAUGGUCCCAGCCUCCUCGCUGGCGCCGGCUGGGCAACAUUCCGAGGGGACCGUCCCCUCGGUAAUGGCGAAUGGAACCCG
Second: GGCCGGCAUGGUCCCAGCCUCCUCGCUGGCGCCGGCUGGGCAACAUUCCGAGGGGACCGUCCCCUCGGUAAUGGCGAAUGGAACCCC
The self-cleavage of the first is lower: 0.342 for the first, 0.583 for the second.

Going from GGCCGGCAUGGUCCCAGCCUCCUCGCUGGCGCCGGCUGGGCAACAUUCCGAGGGGACCGUCCCCUCGGUAAUGGCGAAUGGAACCCU to GGCCGGCAUGGUCCCAGCCUCCUCGCUGGCGCCGGCUGGGCAACAUUCCGAGGGGACCGUCCCCUCGGUAAUGGCGAAUGGAUCCCA, the self-cleavage falls from 0.443 to 0.376.

Going from GGCCGGCAUGGUCCCAGCCUCCUCGCUGGCGCCGGCUGGGCAACAUUCCGAGGGGACCGUCCCCUCGGUAAUGGCGAAUGCGACGCA to GGCCGGCAUGGUCCCAGCCUCCUCGCUGGCGCCGGCUGGGCAACAUUCCGAGGGGACCGUCCCCUCGGUAAUGGCGAAUGCGACACA, the self-cleavage rises from 0.128 to 0.213.

Going from GGCCGGCAUGGUCCCAGCCUCCUCGCUGGCGCCGGCUGGGCAACAUUCCGAGGGGACCGUCCCCUCGGUAAUGGCGAAUGGAACGCA to GGCCGGCAUGGUCCCAGCCUCCUCGCUGGCGCCGGCUGGGCAACAUUCCGAGGGGACCGUCCCCUCGGUAAUGGCGAAUUGUACCCA, the self-cleavage falls from 0.339 to 0.147.

Going from GGCCGGCAUGGUCCCAGCCUCCUCGCUGGCGCCGGCUGGGCAACAUUCCGAGGGGACCGUCCCCUCGGUAAUGGCGAAUUGAACCCA to GGCCGGCAUGGUCCCAGCCUCCUCGCUGGCGCCGGCUGGGCAACAUUCCGAGGGGACCGUCCCCUCGGUAAUGGCGAAUGGCAACCA, the self-cleavage rises from 0.0297 to 0.383.

First: GGCCGGCAUGGUCCCAGCCUCCUCGCUGGCGCCGGCUGGGCAACAUUCCGAGGGGACCGUCCCCUCGGUAAUGGCGAAUGGCACCCG
Second: GGCCGGCAUGGUCCCAGCCUCCUCGCUGGCGCCGGCUGGGCAACAUUCCGAGGGGACCGUCCCCUCGGUAAUGGCGAAUGGCACCCC
The self-cleavage of the first is lower: 0.185 for the first, 0.28 for the second.
